Laboratory results as given in doi:10.1101/836718, “A unique conformational escape reaction of HIV-1 against an allosteric integrase inhibitor” (bioRxiv, 2019).

Tests used:
[1] = target: the molecule itself; experiment: SEC; HPLC, TSKgel-SWXLG3000 column; INHis at 50 µM; running buffer 20 mM HEPES pH 7.4, 750 mM NaCl, 3.75 mM CHAPS; 4°C as possible; self-association (tetramer, dimer, monomer)
[2] = target: T1, His-tagged lens epithelium-derived growth factor p75 (LEDGF/p75) (human (sequence derived from 293T cells), UniProt O75475 1-530); experiment: pull-down; F-IN (2 µM) and LEDGF/p75His (2 µM) 30 min at RT in 50 mM HEPES pH 7.0, 300 mM NaCl, 2 mM MgCl2, 2 mM BME, 5% glycerol, 0.2% NP-40, 20 mM imidazole; His 60 Ni resin; wash with 1 M NaCl; Coomassie staining; settings: both partners purified
T1 construct: also called LEDGFHis; LEDGF/p75His; source: E. coli Rosetta (DE3) pLysS, purified (His-TALON column); not shown: His6, N-terminal, kept
T1 sequence (O75475 whole entry): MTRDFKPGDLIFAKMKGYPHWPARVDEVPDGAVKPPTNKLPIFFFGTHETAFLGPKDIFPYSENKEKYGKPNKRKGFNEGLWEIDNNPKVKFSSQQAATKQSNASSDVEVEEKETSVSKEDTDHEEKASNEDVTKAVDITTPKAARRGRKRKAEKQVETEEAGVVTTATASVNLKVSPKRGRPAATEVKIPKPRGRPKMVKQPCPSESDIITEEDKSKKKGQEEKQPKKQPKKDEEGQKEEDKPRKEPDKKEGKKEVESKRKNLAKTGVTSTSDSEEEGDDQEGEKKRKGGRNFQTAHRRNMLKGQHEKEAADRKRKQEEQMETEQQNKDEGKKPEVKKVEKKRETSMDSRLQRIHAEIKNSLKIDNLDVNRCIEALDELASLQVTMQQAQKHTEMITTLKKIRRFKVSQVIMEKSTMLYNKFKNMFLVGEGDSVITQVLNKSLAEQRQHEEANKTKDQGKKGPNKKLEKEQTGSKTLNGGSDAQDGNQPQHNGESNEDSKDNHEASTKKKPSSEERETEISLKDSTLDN

B1: recombinant His-tagged HIV-1 integrase, wild type (IN^WT) (enzyme)
chain: FLDGIDKAQEEHEKYHSNWRAMASDFNLPPVVAKEIVASCDKCQLKGEAMHGQVDCSPGIWQLDCTHLEGKVILVAVHVASGYIEAEVIPAETGQETAYFLLKLAGRWPVKTVHTDNGSNFTSTTVKAACWWAGIKQEFGIPYNPQSQGVIESMNKELKKIIGQVRDQAEHLKTAVQMAVFIHNFKRKGGIGGYSAGERIVDIIATDIQTKELQKQITKIQNFRVYYRDSRDPVWKGPAKLLWKGEGAVVIQDNSDIKVVPRRKAKIIRDYGKQMAGDDCVASRQDED
notes: pET30a IN-6xHis; also called INHis; IN-6xHis; source: E. coli Rosetta (DE3) pLysS, purified (His-TALON column); not shown: His6, C-terminal, kept
B1 was tested, and the “stoichiometry N” value [1] was 2.

B2: Flag-tagged HIV-1 integrase, wild type (F-IN^WT) (enzyme)
chain: B1 chain
notes: pET30a Flag-IN; also called Flag-IN; source: E. coli Rosetta (DE3) pLysS, purified (by previous reports, Kessl et al., 2012); not shown: FLAG, N-terminal, kept
B2: binds [2].
